This test concerns the target scFv 10-94 P (murine). As to the kind of experiment: SPR.

Drawing on publication PMC4966575, this text covers KD1 (bivalent model) for one substance.

In the case of “Protein L (PpL), free (from UniProt Q51918 1-992) (natural protein)”, the KD1 (bivalent model) stood at 7.5 nM.
